# Assay results published in patent publication US20120321614A1 (Amgen, published 2012).
# Substitutions are numbered along the chain they refer to. Numbers in names are those of the source.
# B1: anti-c-Met monoclonal antibody 8.70.2 (antibody, V domains shown)
# VH: QLQLQESGPGLVKPSETLSLTCTVSGGSISSSSYYGGWIRQPPGKGLDWIGSIYYSGNTYYNPSLKSRVTISVDTSKNQFSLKLSSVTAADTAVYYCARHSWDYFDYWDQGTLVTVSS
# VL: DIQMTQSPSSVSASVGDRVTITCRASQGISSWLAWYQQKPGKAPKLLIYAASSLQSGVPSRFSGSGSGTDFTLTISSLQSEDFATYYCQQANSFPITFGPGTKVEIKR
# notes: Human IgG2 kappa; also called hybridoma 8.70.2 (LN 15885); PTA-5028
# B2: anti-c-Met monoclonal antibody 8.90.3 (antibody, V domains shown)
# VH: EVQLVESGGGLVQPGGSLRLSCAASGFTFSRYSMNWVRQAPGKGLEWVSYISSRSSTIYYADSVKGRFTMSRDNAKNSLYMQMNSLRDEDTAVYYCGYGDYDYFDYWGQGTLVTVSS
# VL: B1 VL with T20I, Q55K, L73V, S80P, A91S, F94L, I96W, P100Q
# notes: Human IgG2 kappa
# B3: anti-c-Met monoclonal antibody 13.3.2 (antibody, human IgG2, kappa, V domains shown)
# VH: QVQLVQSGAEVKKPGASVKVSCEASGYTFTSYGFSWVRQAPGQGLEWMGWISASNGNTYYAQKLQGRVTMTTDTSTSSAYMELRSLRSDDTAVYYCARVYADYADYWGQGTLVTVSS
# VL: B1 VL with S30N, S31T, Q55K, T69A, S80P, I96L, P100G
# notes: Human IgG2 kappa from XenoMouse hybridoma; The variable positions X2, X4, X6, X8 correspond to positions 42, 97, 14 (heavy) and 91 (light), where position one is the N-terminal amino acid; these numbers may not count on the entry with its leader; also called PTA-5026
# B4: anti-c-Met monoclonal antibody 13.3.2L-A91T, H-E42K, S97T (antibody, human IgG2, kappa, V domains shown)
# VH: B3 VH with E23K, S78T
# VL: B1 VL with S30N, S31T, Q55K, S80P, I96L, P100G
# notes: positions 42, 97, 14 and 91 count from the N-terminal amino acid and may not count on the entry with its leader
# B5: anti-c-Met monoclonal antibody 9.1.2 (antibody, V domains shown)
# VH: QVQLQESGPGLVKPSQTLSLTCTVSGGSISSGGYYWSWIRQHPGKGLEWIGYIYYSGSTYYNPSLKSRVTISVDTSKNQFSLKLSSVTAADTAVYYCARDGPLGYCSSTSCPVTGEYYYYGMDVWGQGTTVTVSS
# VL: EIVLTQSPGTLSLSPGERATLSCRASQSVSNNYLAWYQQKPGQAPRLLIFGASSRATGIPDRFSGSGSGTDFTLTISRLEPEDFAVYYCQQYDISPMYSFGQGTKLEMKR
# notes: Human IgG2 kappa; also called hybridoma 9.1.2 (LN 15884); PTA-5027
# Molecular target: T1, c-Met ECD/Fc (R&D Systems #358 MT), human (human, UniProt P08581 25-932)
# T1 construct: extracellular domain; Bought fusion protein; also called c-Met ECD-Fc (human); human Met ECD-Fc; not shown: Fc part of the bought fusion protein
# T1 sequence (P08581 25-932): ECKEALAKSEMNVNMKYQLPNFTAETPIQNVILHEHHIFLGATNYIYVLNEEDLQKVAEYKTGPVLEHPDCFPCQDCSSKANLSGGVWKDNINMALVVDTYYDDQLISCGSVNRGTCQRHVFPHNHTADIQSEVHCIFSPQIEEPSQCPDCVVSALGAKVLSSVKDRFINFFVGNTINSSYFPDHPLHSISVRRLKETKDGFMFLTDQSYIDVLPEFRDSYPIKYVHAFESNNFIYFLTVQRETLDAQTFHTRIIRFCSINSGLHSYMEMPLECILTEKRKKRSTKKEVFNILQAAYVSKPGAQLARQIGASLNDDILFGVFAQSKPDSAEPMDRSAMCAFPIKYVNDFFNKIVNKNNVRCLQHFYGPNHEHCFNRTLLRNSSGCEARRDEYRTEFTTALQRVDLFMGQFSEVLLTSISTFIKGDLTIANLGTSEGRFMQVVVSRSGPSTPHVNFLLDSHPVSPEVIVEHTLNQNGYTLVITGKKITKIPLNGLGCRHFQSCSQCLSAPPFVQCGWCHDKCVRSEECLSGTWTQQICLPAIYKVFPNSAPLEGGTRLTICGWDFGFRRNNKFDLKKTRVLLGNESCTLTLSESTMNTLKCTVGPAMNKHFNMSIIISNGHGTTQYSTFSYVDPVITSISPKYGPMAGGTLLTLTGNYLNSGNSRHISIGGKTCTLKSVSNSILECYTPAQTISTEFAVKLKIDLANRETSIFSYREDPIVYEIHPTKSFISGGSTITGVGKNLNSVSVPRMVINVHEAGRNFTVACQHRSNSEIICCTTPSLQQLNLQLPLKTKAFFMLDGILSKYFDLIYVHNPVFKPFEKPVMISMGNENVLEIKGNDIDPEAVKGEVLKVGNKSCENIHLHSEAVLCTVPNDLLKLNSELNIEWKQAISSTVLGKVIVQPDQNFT
# Experiment: SPR (BIACORE 3000), human c-Met ECD-Fc immobilized, antibody injected, 1:1 model
# Experimental: (§1) Experiments were performed in a BIACORE™ 3000 instrument at 25° C. in Dulbecco's phosphate buffered saline containing 0.0005% Tween-20. Protein concentrations were obtained from sedimentation velocity experiments or by measuring the wavelength of the sample at 280 nm using theoretical extinction coefficients derived from amino acid sequences. For experiments measuring the binding of antibody to immobilized antigens, 220 RU (resonance units) of c-Met ECD-Fc (human or cynomologus) was immobilized on a B1 chip (BIACORE™) by standard direct amine coupling procedures. […] For each concentration, samples were injected in duplicate at 5 μl/min flow for 4 min. The dissociation was monitored for 2000 seconds. The data were fit globally to a simple 1:1 binding model using BIACORE™ Biavel software. In addition, to determine the koff independent of any potential error in the active concentration or fitting model, the dissociation data were fit globally and independently from association data to a simple dissociation model.
row,Binder,Kd [nM]
1,B1,0.33
2,B2,0.53
3,B3,0.22
4,B4,0.2
5,B5,0.82

# Molecular target: T1, c-Met ECD/Fc (R&D Systems #358 MT), …
# Experiment: SPR (BIACORE 3000), human c-Met ECD-Fc immobilized, antibody injected
# Experimental: as §1
row,Binder,koff [s⁻¹]
1,B1,6.1e-05
2,B2,0.00015
3,B3,0.00015
4,B4,0.00018
5,B5,6.8e-05

# Molecular target: T2, Insulin-like Growth Factor 1 Receptor (IGF-1R) (UniProt P08069 31-1367, limits assumed)
# T2 construct: also called IGF-IR
# Experiment: IGF-1R Cell ELISA: IGF-1R tyrosine phosphorylation after IGF-1, % of control. Indirect readout; the legend says that the antibody does not bind IGF-1R
row,Binder,binding result
1,B3,no binding (tested: 1000 µg/ml)
2,B5,no binding (tested: 1000 µg/ml)

# Molecular target: T3, c-Met expressed on the surface of human A549 lung carcinoma cells (human, UniProt P08581 25-1390)
# T3 sequence (P08581 25-1390): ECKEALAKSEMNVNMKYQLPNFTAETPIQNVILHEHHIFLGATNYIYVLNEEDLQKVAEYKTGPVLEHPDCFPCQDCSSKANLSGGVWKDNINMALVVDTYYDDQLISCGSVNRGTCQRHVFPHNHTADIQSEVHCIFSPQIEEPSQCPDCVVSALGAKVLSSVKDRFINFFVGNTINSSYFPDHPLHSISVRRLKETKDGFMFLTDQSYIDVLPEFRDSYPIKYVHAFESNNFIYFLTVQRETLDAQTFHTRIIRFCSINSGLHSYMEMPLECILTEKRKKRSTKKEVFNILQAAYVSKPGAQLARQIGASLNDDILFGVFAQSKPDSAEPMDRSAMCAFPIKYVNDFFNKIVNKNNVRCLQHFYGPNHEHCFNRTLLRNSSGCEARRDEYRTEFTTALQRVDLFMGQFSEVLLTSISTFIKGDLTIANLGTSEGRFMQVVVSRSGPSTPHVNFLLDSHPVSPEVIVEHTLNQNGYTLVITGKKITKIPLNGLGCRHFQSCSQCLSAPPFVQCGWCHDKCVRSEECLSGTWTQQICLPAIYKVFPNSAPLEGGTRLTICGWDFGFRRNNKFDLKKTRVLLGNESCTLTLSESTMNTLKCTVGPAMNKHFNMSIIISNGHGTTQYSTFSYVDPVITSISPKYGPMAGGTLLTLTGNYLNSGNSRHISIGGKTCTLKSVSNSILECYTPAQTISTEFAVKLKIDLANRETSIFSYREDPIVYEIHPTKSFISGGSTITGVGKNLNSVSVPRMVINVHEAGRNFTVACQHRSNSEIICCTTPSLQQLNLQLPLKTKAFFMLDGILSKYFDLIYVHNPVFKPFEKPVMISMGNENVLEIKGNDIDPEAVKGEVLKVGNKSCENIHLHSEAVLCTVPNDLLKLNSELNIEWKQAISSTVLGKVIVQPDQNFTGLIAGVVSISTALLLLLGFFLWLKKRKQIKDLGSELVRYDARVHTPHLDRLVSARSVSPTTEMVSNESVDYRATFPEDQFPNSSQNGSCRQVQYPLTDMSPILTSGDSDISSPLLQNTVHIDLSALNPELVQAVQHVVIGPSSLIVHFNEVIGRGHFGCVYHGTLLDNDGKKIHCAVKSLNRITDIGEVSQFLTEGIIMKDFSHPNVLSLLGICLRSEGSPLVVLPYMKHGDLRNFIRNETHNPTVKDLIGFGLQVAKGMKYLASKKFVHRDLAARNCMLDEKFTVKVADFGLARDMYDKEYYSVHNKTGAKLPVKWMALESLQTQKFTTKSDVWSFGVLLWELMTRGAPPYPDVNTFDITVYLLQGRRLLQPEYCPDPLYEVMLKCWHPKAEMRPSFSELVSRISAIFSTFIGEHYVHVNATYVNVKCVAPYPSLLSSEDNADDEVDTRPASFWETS
# Experiment: cell-based or functional assay
Binder,Agonist Activity [maximum fold stimulation],Cellular Met Levels [% loss at 1.0 µg/ml],"Cellular pTyr Assay [IC50, µg/ml] [µg/ml]","Soft Agar Growth [IC50, µg/ml] [µg/mL]",Tubular Morphogenesis Agonism [fold stimulation at 50 µg/ml],Tubular Morphogenesis Antagonism [% inhibition at 1 µg/ml]
B1,2.5 fold stimulation (maximum),11,0.143,25,8.2 fold stimulation at 50 µg/ml,25
B2,2.3 fold stimulation (maximum),17.5,0.086,10.5,2.5 fold stimulation at 50 µg/ml,61
B3,2.7 fold stimulation (maximum),–,0.033,8.5,–,–
B4,2.5 fold stimulation (maximum),28.5,0.032,–,–,–
B5,6.5 fold stimulation (maximum),46.9,0.033,5.5,2.2 fold stimulation at 50 µg/ml,84

# Molecular target: T3, c-Met expressed on the surface of human …
# Experiment: flow cytometry on human A549 cells, half-maximal binding at equilibrium
# Experimental: (§2) The binding affinity of purified antibodies for c-Met expressed on the surface of human A549 lung carcinoma cells and cynomolgus kidney cells was determined by flow cytometry using the BD™ Biosciences LSR flow cytometer according to manufacturer's protocols.
# (§3) Cells grown in culture were washed with PBS, briefly incubated in the presence of 0.25% trypsin-EDTA (Invitrogen) and collected. The collected cells were washed in PBS wash buffer containing 0.025% sodium azide and 2% heat inactivated serum, pelleted and 5×10⁵ cells and resuspended in 500 μl of the same buffer. The time required to achieve equilibrium binding at room temperature for each antibody was determined independently to be between six and eight hours by incubating subsaturating concentrations of each antibody with cells. […] Each antibody was incubated with detached cells for 6 to 8 hours at room temperature depending on the time required to reach equilibrium. Cells were washed, resuspended and incubated in 500 μl of a 1:500 dilution of biotinylated mouse anti-human IgG (Jackson Labs) in PBS wash buffer for 45 minutes on ice. Next, cells were washed, resuspended and incubated with 10 μg/ml streptavidin R-phycoerythrin conjugate (Caltag) in 200 μl PBS wash buffer for 15 min on ice protected from light. Cells were washed and signal was detected with a BD Biosciences LSR flow cytometer according to manufacturer's protocols.
row,Binder,Kd [nM]
1,B1,0.0407
2,B2,0.026
3,B3,0.0393
4,B4,0.056
5,B5,0.169

# Molecular target: T4, c-Met ECD-Fc (cynomologus) (cynomologus, UniProt A0A2K5UM36 25-932)
# T4 construct: also called cynomologus c-Met ECD-Fc
# T4 sequence (A0A2K5UM36 entry or part of it limits assumed): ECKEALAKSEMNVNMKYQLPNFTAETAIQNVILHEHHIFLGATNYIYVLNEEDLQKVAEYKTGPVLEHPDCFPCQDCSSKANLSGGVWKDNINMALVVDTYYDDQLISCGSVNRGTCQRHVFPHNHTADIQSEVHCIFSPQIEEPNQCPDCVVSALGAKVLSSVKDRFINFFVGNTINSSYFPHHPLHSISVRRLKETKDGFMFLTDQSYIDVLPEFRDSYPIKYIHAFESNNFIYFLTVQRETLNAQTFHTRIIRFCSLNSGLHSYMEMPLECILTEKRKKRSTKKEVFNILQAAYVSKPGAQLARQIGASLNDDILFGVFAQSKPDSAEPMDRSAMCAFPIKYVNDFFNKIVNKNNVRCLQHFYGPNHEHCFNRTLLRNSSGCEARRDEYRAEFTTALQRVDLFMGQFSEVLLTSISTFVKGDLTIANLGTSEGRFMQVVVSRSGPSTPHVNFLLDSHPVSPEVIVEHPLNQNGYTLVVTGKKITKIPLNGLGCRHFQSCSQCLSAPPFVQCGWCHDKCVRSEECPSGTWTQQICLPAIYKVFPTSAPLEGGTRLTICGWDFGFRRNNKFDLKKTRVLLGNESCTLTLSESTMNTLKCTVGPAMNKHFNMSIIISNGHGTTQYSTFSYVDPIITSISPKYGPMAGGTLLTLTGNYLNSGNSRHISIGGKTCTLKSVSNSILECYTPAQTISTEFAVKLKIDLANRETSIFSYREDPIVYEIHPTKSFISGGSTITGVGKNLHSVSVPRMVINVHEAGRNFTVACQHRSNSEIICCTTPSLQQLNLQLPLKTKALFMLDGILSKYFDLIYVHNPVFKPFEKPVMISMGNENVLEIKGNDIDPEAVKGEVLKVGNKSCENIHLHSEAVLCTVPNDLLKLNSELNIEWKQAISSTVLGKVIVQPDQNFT
# Experiment: SPR (BIACORE 3000), cynomologus c-Met ECD-Fc immobilized, antibody injected, 1:1 model
# Experimental: as §1
row,Binder,Kd [nM]
1,B1,0.32
2,B2,1.22
3,B3,0.6
4,B4,0.61
5,B5,1.1

# Molecular target: T1, c-Met ECD/Fc (R&D Systems #358 MT), …
# Experiment: Ligand Binding ELISA (competition): plate coated with c-Met ECD/Fc, antibody concentration varied, then HGF added and bound HGF detected; readout is % inhibition of HGF binding
# Experimental: The wells were washed four times with Tris-buffered saline (pH=8.0) with 0.05% TWEEN-20 (TBS-T). Next, 200 μl/well of blocking buffer (3% bovine serum albumin (BSA) in TBS-T) was added for 60 minutes (min) at room temperature to block non-specific binding sites. The wells were washed 4 times with 300 μl/well TBS-T. Next, 100 μl of Dulbecco's Modified Eagle medium (DMEM) supplemented with 10% FBS containing anti-c-Met antibodies from hybridoma supernatants or purified antibodies in either PBS or 20 mM sodium acetate (pH=5.5), 140 mM NaCl at various concentrations (e.g., 10, 3, 1, 0.3, 0.1, 0.03, and 0.01 μg/ml, based on human IgG2 concentrations in the supernatants) was added to each well. Anti-c-Met antibody was not added to the control wells of the experiment. The samples were mixed for 4 hours (hrs) at room temperature. […] The samples were mixed for 15 minutes at room temperature. […] The solutions were incubated in the wells for 30 min at room temperature. […] The samples were incubated for 30 min at room temperature. The wells were washed 5 times with TBS-T, about 300 μl/well/wash. Next, 100 μl/well of 3,3′,5,5′-tetramethylbenzidine (TMB) peroxidase substrate (Kirkegaard & Perry Laboratories) was added and developed for 1-2 min at room temperature. […] The samples were read at a wavelength of 450 nanometers (nm) on a 96-well plate reader and no background was subtracted.
row,Binder,IC50 (read off the curve) [mg/L]
1,B3,~0.03
2,B4,~0.05

# Molecular target: T1, c-Met ECD/Fc (R&D Systems #358 MT), …
# Experiment: ELISA, inhibition of HGF binding to plate-coated c-Met ECD/Fc
# Experimental: The wells were washed four times with Tris-buffered saline (pH=8.0) with 0.05% TWEEN-20 (TBS-T). Next, 200 μl/well of blocking buffer (3% bovine serum albumin (BSA) in TBS-T) was added for 60 minutes (min) at room temperature to block non-specific binding sites. The wells were washed 4 times with 300 μl/well TBS-T. Next, 100 μl of Dulbecco's Modified Eagle medium (DMEM) supplemented with 10% FBS containing anti-c-Met antibodies from hybridoma supernatants or purified antibodies in either PBS or 20 mM sodium acetate (pH=5.5), 140 mM NaCl at various concentrations (e.g., 10, 3, 1, 0.3, 0.1, 0.03, and 0.01 μg/ml, based on human IgG2 concentrations in the supernatants) was added to each well. Anti-c-Met antibody was not added to the control wells of the experiment. The samples were mixed for 4 hours (hrs) at room temperature. […] The samples were mixed for 15 minutes at room temperature. […] The solutions were incubated in the wells for 30 min at room temperature. […] The samples were incubated for 30 min at room temperature. The wells were washed 5 times with TBS-T, about 300 μl/well/wash. Next, 100 μl/well of 3,3′,5,5′-tetramethylbenzidine (TMB) peroxidase substrate (Kirkegaard & Perry Laboratories) was added and developed for 1-2 min at room temperature. To stop the reaction, 100 μl/well of TMB stop solution (Kirkegaard & Perry Laboratories, #50-85-04) was added. The samples were read at a wavelength of 450 nanometers (nm) on a 96-well plate reader and no background was subtracted.
row,Binder,IC50 [mg/L]
1,B1,0.115
2,B2,0.11
3,B3,0.09
4,B4,0.127
5,B5,0.093

# Molecular target: T4, c-Met ECD-Fc (cynomologus)
# Experiment: SPR (BIACORE 3000), cynomologus c-Met ECD-Fc immobilized, antibody injected
# Experimental: as §1
row,Binder,koff [s⁻¹]
1,B1,6.5e-05
2,B2,0.00025
3,B3,0.00029
4,B4,0.0004
5,B5,9.8e-05

# Molecular target: T5, c-Met expressed on the surface of cynomolgus kidney cells (cynomolgus, UniProt A0A2K5UM36 25-1381)
# T5 construct: also called cynomologus c-Met expressed on the cell surface
# T5 sequence (A0A2K5UM36 entry or part of it limits assumed): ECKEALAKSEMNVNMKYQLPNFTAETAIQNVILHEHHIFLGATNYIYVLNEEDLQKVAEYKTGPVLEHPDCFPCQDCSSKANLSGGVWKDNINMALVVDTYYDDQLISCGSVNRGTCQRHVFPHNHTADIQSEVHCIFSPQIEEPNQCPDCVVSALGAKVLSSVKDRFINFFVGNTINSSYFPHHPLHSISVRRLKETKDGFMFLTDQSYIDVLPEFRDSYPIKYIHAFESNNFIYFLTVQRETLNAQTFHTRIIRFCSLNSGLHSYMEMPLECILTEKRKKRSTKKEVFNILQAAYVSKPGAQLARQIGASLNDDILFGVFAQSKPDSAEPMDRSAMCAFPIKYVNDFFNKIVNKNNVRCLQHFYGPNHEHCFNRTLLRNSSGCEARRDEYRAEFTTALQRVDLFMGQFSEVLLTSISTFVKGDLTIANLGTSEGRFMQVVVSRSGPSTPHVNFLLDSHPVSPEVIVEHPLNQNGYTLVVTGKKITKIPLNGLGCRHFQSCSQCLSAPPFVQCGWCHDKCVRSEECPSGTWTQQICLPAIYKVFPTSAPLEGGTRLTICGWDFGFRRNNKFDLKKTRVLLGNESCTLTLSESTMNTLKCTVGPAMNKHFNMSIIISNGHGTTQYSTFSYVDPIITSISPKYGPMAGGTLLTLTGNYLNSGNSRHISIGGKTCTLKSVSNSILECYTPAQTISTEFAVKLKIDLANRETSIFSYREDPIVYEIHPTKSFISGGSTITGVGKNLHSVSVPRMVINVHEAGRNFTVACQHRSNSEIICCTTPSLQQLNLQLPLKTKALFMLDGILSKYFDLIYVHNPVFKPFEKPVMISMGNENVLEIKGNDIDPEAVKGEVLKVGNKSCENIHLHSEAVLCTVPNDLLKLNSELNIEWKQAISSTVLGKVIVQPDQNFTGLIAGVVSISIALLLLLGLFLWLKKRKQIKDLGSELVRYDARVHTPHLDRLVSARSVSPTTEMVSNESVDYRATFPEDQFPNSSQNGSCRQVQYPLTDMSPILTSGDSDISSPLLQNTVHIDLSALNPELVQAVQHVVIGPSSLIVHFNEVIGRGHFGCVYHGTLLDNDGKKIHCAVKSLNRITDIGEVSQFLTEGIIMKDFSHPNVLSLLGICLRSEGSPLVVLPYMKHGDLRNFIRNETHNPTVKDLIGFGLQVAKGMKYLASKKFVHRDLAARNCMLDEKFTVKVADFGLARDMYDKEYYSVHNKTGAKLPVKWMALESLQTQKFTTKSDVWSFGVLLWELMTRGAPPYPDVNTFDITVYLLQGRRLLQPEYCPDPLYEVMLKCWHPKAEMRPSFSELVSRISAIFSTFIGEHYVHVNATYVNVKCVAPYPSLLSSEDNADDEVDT
# Experiment: flow cytometry on cynomolgus kidney cells, half-maximal binding at equilibrium
# Experimental: as §2, §3
row,Binder,Kd [nM]
1,B1,0.0553
2,B2,0.393
3,B3,0.0486
4,B4,0.0733
5,B5,0.168
